Reference: the DeepSol protein solubility set

Experiment: soluble on expression in E. coli; label from the status in PepcDB or PDB records

Sequence | soluble on expression in E. coli
MLPMQLPFQRARRLCLRAALAAIASAAHADDGTIVITGTITDTTCVIEDPAGPTHTKVVQLPKISKSALAKDGDEAGRTPFLITLKNCPSSLNNGVKAYFEPGPTTDYATGDLKAYSIAYNNNPATTQNAIIAASEAQGVQIRISNQNGTKIPMGVDAAAQNAQAFNPVTDTADNAKKKVTLRYLASYVKKSGNITTGQLTTYVGFSMIYP | not soluble
MLPSISINNTSAAYPESINENNNDEINGLVQEFKNLFNGKEGISTCIKHLLELIKNAIRVNDDPYRSNINNSSVTYIDIGSNDTDHITIGIDNQEPIELPANYKDKELVRTIINDNIVEKTHDINNKEMIFSALKEIYDGDPGFIFDKISHKLRHTVTEFDESGKSEPTDLFTWYGKDKKGDSLAIVIKNKNGNDYLSLGYYDQDDYHIQRGIRINGDSLTQYCSENARSASAWFESSKAIMAESFATGSDHQVVNELNGERLREPNEVFKRLGRAIRYNFQVDDAKFRRDNVKEIISTLFANKVDVDHPENKYKDFKNLEDKVEKRLQNRQTKYQNEINQLSALGVNFDDI | not soluble
MLPSRKRLVLEQLGKTLSRFAGLQAVSPPARGWIRAIREALGMSGVQFAARLGVTPPRVTALERDELSGAVTMKTMRQAAEALDCVFLYALVPRTSLEETIRRQAEAVARERLLRVSHTMMLESQQLSEEEMKQALDAAVEELVRTMPKDLWSKAP | not soluble
MLQNQYVREMRKYGVRGLRYDAAKHSKHEQIERSITPPLKNYNERLHNTNLFNPKYHEKAVMNYMEYLVTCQLDEEQMSSLLYERDDLSAIDFSLLMKTIKAFSFGGDLQTLASKPSSTISSIPSKRRILININHDFPNNGNLFNDFLFNHQQDEQLAMAYMAALPFSRPLVYWDGQVLKSTTEIKNYDGSTRVGGEAWLNKGCSTYQQLYNEFHALYIDKAGIWSAFEGVFATKNVLAFSRGDSVNINHSPHDGLVIINKGNEEVEGAWPNKLQPGKYKNMGSNSVNIIINNTRKIIPPGKAFMLRGGTLNINIPGRSALLLGKTGEPLNYLYL | not soluble
MLRAKVRRIALANQKGGVGKTTTAINLAAYLARLGKRVLLVDLDPQGNATSGLGVRAERGVYHLLQGEPLEGLVHPVDGFHLLPATPDLVGATVELAGAPTALREALRDEGYDLVLLDAPPSLSPLTLNALAAAEGVVVPVQAEYYALEGVAGLLATLEEVRAGLNPRLRLLGILVTMYDGRTLLAQQVEAQLRAHFGEKVFWTVIPRNVRLAEAPSFGKTIAQHAPTSPGAHAYRRLAEEVMARVQEAGSHHHHHH | soluble
MLRIAFASALRFVRRHSSVLQADFEGGVSQSHISRLERGESSVTLERLEEIAAHLNVHPLSLIALTWGASEQIPPAELLERVRRELESVEGLLRPIAIDDQPAVHPRIIEAEKVRNEVQRLKALGHTKAEISRLMGIAKSTAARHW | not soluble
MLRITELKLPIDHPEEDLRVALLQHLGIDSSELLDFTLFKRSYDARKKSSELCFIYTIDFQVKDEAALLRKLANDRHVGPAPDVSYKVVGHAPEGLSERPIVVGFGPCGIFAGLLLAQMGFKPIILERGTEVRQRTKDTWALWRKNVLNAESNVQFGEGGAGTFSDGKLYSQIKDPKFIGRKVLHEFVKAGAPEEILYVSKPHIGTFRLTGVVENMRHQIEALGGEVRFQQRVTDLMIEDGQLLGVQLDSGEQIESRHVILALGHSARDTFRMLHGRGVFMEAKPFSVGFRIEHPQSLIDRARLGKYAGHPKLGAADYKLVHHASNGRSVYSFCMCPGGTVVAATSEPGRVVTNGMSQYSRNERNANSGIVVGISPEQDFPGSPLAGIELQERLESHAYLLGGSNYEAPAQLVGDFIAGRASTALGSVEPSYKPGVKLVDLAEALPAFAIEAIREALPAFDKQIKGFSLHDAVLTGIETRTSAPLRITRGPTMQSLNTKGLYPAGEGAGYAGGILSAGVDGIRVAEALVRDMLGIEGLEHHHHHH | soluble
MLRKQVYLTPEEEAKLKRLARATGRTEAEILRLALDLLPEEEAPLLLALAEEGLLEVPERAVTPARMEEAYRRYLDRVAGRGLGLSKAVLADREGR | soluble
MLRTEHYAFLPCISRALEERDSLGIRRELRARQQRLSMQQSRSKLGRVCVTGANSPLGQELVGALTRTPDPSLRPDAIGVIGARDPIESHSAGAGLHFPGPGVDFLECAATDLEHYNPRTLFSINDDDLGLRRRSIFRENQVVIDLLRAQGETNEPRSKTRLVLVTLLGCGDSEDAIPSQAFDVLRPLLLELSRVEQYVRESGLPYTIVRPGALEHGDADSRAIVSESKVGFGTIHRSTLAHLLLNVAASEKAVNKTLMALDMNRLLVAAPYVRPFEVWESPPFEVFDL | soluble
MLRTQAARLICNSRVITAKRTFALATRAAAYSRPAARFVKPMITTRGLKQINFGGTVETVYERADWPREKLLDYFKNDTFALIGYGSQGYGQGLNLRDNGLNVIIGVRKDGASWKAAIEDGWVPGKNLFTVEDAIKRGSYVMNLLSDAAQSETWPAIKPLLTKGKTLYFSHGFSPVFKDLTHVEPPKDLDVILVAPKGSGRTVRSLFKEGRGINSSYAVWNDVTGKAHEKAQALAVAIGSGYVYQTTFEREVNSDLYGERGCLMGGIHGMFLAQYDVLRENGHSPSEAFNETVEEATQSLYPLIGKYGMDYMYDACSTTARRGALDWYPIFKNALKPVFQDLYESTKNGTETKRSLEFNSQPDYREKLEKELDTIRNMEIWKVGKEVRKLRPENQ | not soluble
MLRVIVESASNIPKTKFGKPDPIVSVIFKDEKKKTKKVDNELNPVWNEILEFDLRGIPLDFSSSLGIIVKDFETIGQNKLIGTATVALKDLTGDQSRSLPYKLISLLNEKGQDTGATIDLVIGYDPP | soluble
MLRVYHSNRLDVLEALMEFIVERERLDDPFEPEMILVQSTGMAQWLQMTLSQKFGIAANIDFPLPASFIWDMFVRVLPEIPKESAFNKQSMSWKLMTLLPQLLEREDFTLLRHYLTDDSDKRKLFQLSSKAADLFDQYLVYRPDWLAQWETGHLVEGLGEAQAWQAPLWKALVEYTHQLGQPRWHRANLYQRFIETLESATTCPPGLPSRVFICGISALPPVYLQALQALGKHIEIHLLFTNPCRYYWGDIKDPAYLAKLLTRQRRHSFEDRELPLFRDSENAGQLFNSDGEQDVGNPLLASWGKLGRDYIYLLSDLESSQELDAFVDVTPDNLLHNIQSDILELENRAVAGVNIEEFSRSDNKRPLDPLDSSITFHVCHSPQREVEVLHDRLLAMLEEDPTLTPRDIIVMVADIDSYSPFIQAVFGSAPADRYLPYAISDRRARQSHPVLEAFISLLSLPDSRFVSEDVLALLDVPVLAARFDITEEGLRYLRQWVNESGIRWGIDDDNVRELELPATGQHTWRFGLTRMLLGYAMESAQGEWQSVLPYDESSGLIAELVGHLASLLMQLNIWRRGLAQERPLEEWLPVCRDMLNAFFLPDAETEAAMTLIEQQWQAIIAEGLGAQYGDAVPLSLLRDELAQRLDQERISQRFLAGPVNICTLMPMRSIPFKVVCLLGMNDGVYPRQLAPLGFDLMSQKPKRGDRSRRDDDRYLFLEALISAQQKLYISYIGRSIQDNSERFPSVLVQELIDYIGQSHYLPGDEALNCDESEARVKAHLTCLHTRMPFDPQNYQPGERQSYAREWLPAASQAGKAHSEFVQPLPFTLPETVPLETLQRFWAHPVRAFFQMRLQVNFRTEDSEIPDTEPFILEGLSRYQINQQLLNALVEQDDAERLFRRFRAAGDLPYGAFGEIFWETQCQEMQQLADRVIACRQPGQSMEIDLACNGVQITGWLPQVQPDGLLRWRPSLLSVAQGMQLWLEHLVYCASGGNGESRLFLRKDGEWRFPPLAAEQALHYLSQLIEGYREGMSAPLLVLPESGGAWLKTCYDAQNDAMLDDDSTLQKARTKFLQAYEGNMMVRGEGDDIWYQRLWRQLTPETMEAIVEQSQRFLLPLFRFNQS | soluble
MLSGREMSMSHINYNHLYYFWHVYKEGSVVGAAEALYLTPQTITGQIRALEERLQGKLFKRKGRGLEPSELGELVYRYADKMFTLSQEMLDIVNYRKESNLLFDVGVADALSKRLVSSVLDAAVVEDEQIHLRCFESTHEMLLEQLSQHKLDMIISDCPIDSTQQEGLFSMKIGECGVSFWCTNPLPEKPFPACLEERRLLIPGRRSMLGRKLLNWFNSQGLNVEILGEFDDAALMKAFGATHNAIFVAPSLYANDFYNDDSVVEIGRVENVMEEYHAIFAERMIQHPAVQRICNTDYSALFTPASK | not soluble
MLSKKLHDALNDQMNFEFYSAHAYMAMAAYCTAESYDGFANFFLVQAEEERFHAMKLYNYINDRGERAIITGFDNPNNEYESVLNAFEVALEHEREVTKRIYNLSDIAWDEREHATITFLKWFVDEQVEEEASFDSIIQKLKRITSDSNALFMLDAELEKRTFTPPAE | not soluble
MLSKSLALGRRLTKISSSVKSISSITFKTVDGKPRDALTIHNVDFVIDPDEKMVDEYMKVYGNQRFNFKRNDIDIWRKSFKDSYSLWLVCLKGTNKIVQMSHVLNFPPLLSHNDILHQYHGFFWVDPDYRGKDSMAIMDYIEKHRARNQSDNDAGTFLTTAVTMWTKMHGHADYKHIMYVSYYKPDEMQIPEDLNLDGIFLKNATEVPDMDIVKYDNTVFPYERSKYMLNLLRDPEGFGKVAYDNNGKVIGFGNVIIYPSGECVLTPLYADDSKVAQAIFKSILKEIPLNDKKLLRFQIRSIDQCEGGFEWIQPFVKNPIRKEIMGHMAGSSHPPTVNYKKTYANTPYTTCVI | not soluble
MLSLDQIPHHIRHGIVGSRLIQIRGRVTQVTGTLLKAVVPGVRIGELCYLRNPDNSLSLQAEVIGFAQHQALLIPLGEMYGISSNTEVSPTGTMHQVGVGEHLLGQVLDGLGQPFDGGHLPEPAAWYPVYQDAPAPMSRKLITTPLSLGIRVIDGLLTCGEGQRMGIFAAAGGGKSTLLASLIRSAEVDVTVLALIGERGREVREFIESDLGEEGLRKAVLVVATSDRPSMERAKAGFVATSIAEYFRDQGKRVLLLMDSVTRFARAQREIGLAAGEPPTRRGYPPSVFAALPRLMERAGQSSKGSITALYTVLVEGDDMTEPVADETRSILDGHIILSRKLAAANHYPAIDVLRSASRVMNQIVSKEHKTWAGDLRRLLAKYEEVELLLQIGEYQKGQDKEADQAIERMGAIRGWLCQGTHELSHFNETLNLLETLTQ | not soluble
MLSNNVNPVVGLSYRPLPETPPSGQAAAHPSMRLLEPNNDEFVRSVASPRLHHSSEALREVKHDVRQFQASGDRSLQQLRDLEVALNHWEASQPREFAKRGGMVAELRTAIDAYKQQLHEQAPSHANLDVKWLDGLRAGSMALQGDVKVWMQNLEDLHTRRPDEFAARLQQSTDALYSHLEAQWAKQHGTPPTASDVAGMPQWQEYTAMLRERFAGLDTIRPNLTAEENGVAILKTQTQLLALQRAQEALQASLADGVSHQGDVGLLRTQLLAGMVEGLIALQQADDDSALWSRPSAADSGGRLSVEAGAKASTDFEAPASKGELLRGKGISGEAVLEAFANIEMSVSGSRAGAAGEAEGSLRLYGESTARAEVSGSFEPFALSGSIGREEADGDTAASANPVLSLNVSAELSSKLGLEAQGSVTLGSLLKLDAEGRAEVGASAEVSGTAAIDKRSDGLGVRLEGQAEAFAGLKAEGTLTANLLHSKYADAHGLTASVTGSANVGLGATAEGKLVASPGQFEMGGEVGTTLGVGGNIGWNSKVDVNASTAYAYELASAAMARFDALRASQLDHDAKTSGNESQLNRLAANLQSHIDATSQKLDALNSAGVESRIRKVDGFAAGDGAQAAAGLAAQMALVGTGADLSHDIKITALNLRA | not soluble
MLSNQQIRNFSRGVGHLRRRAAKNNVIKVRPEELRPFFNQYSVLPNGIQNDADAKLFSKELQPGERKLLFDALRKITADQYNDHKKVVEVTIDHEDLVKVWYINFIPMFVYGCLDEAFLIIGGESINK | not soluble
